Biological target: T1, glutathione S transferase (GST)-SQUAMOSA PROMOTER BINDING PROTEIN-LIKE9 (SPL9) (Arabidopsis thaliana, UniProt Q700W2 1-375)
T1 construct: SPL9, Arabidopsis thaliana; full-length cDNA without stop codon recombined into pDEST15 (N-GST); also called GST-SPL9; source: Escherichia coli, purified; not shown: GST, N-terminal, kept
T1 sequence (looked up): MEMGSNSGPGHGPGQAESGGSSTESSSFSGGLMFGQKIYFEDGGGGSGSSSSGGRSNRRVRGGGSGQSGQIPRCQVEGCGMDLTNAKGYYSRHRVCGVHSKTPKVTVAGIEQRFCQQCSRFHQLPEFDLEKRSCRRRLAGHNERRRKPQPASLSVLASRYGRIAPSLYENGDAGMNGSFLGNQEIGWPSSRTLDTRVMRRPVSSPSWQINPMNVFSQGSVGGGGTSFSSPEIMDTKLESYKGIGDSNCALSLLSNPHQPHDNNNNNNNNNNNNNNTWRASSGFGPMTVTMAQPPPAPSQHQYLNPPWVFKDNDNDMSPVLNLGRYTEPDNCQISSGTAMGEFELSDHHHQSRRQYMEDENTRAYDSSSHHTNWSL
Test: pull-down; glutathione beads with 1 µg GST-SPL9 incubated with 1 µg MBP or MBP-BZR1; 20 mM Tris-HCl pH 7.5, 100 mM NaCl, 1 mM EDTA, 4 °C, 1 h; washed 10 times with 300 mM NaCl, 0.5% TritonX-100; anti-MBP and anti-GST blots
Conditions: both partners purified

B1: Maltose binding protein (MBP)-BRASSINAZOLE RESISTANT 1 (BZR1) (natural protein, Arabidopsis thaliana, UniProt Q8S307 1-336, looked up)
chain: MTSDGATSTSAAAAAAAAAAARRKPSWRERENNRRRERRRRAVAAKIYTGLRAQGDYNLPKHCDNNEVLKALCVEAGWVVEEDGTTYRKGCKPLPGEIAGTSSRVTPYSSQNQSPLSSAFQSPIPSYQVSPSSSSFPSPSRGEPNNNMSSTFFPFLRNGGIPSSLPSLRISNSCPVTPPVSSPTSKNPKPLPNWESIAKQSMAIAKQSMASFNYPFYAVSAPASPTHRHQFHTPATIPECDESDSSTVDSGHWISFQKFAQQQPFSASMVPTSPTFNLVKPAPQQMSPNTAAFQEIGQSSEFKFENSQVKPWEGERIHDVGMEDLELTLGNGKARG
notes: BZR1, Arabidopsis thaliana; also called MBP-BZR1; MBP-fused BZR1; source: Escherichia coli, purified
Does B1 bind?
Result: binds

Source: publication PMC8509050, “BZR1 Physically Interacts with SPL9 to Regulate the Vegetative Phase Change and Cell Elongation in Arabidopsis” (International Journal of Molecular Sciences, 2021)
